Substitutions are numbered along the chain they refer to. Names and notes keep the numbering of the source.

Here are results for seven molecules from publication PMC2665062 (The Journal of Biological Chemistry, 2009).

One series has as its target histone H4 (calf thymus) (calf, UniProt P62803 1-103). Kind of series: ELISA.
The series “crystal structure” concerns the molecule itself. Put plainly: crystal structure.

B1: Plasmodium falciparum nucleosome assembly protein PfNapL, wild type (natural protein, UniProt Q8I608 1-347, looked up)
chain: MAANEGNQPIPPEEEKEISSLLESIKIDDDKMTDLTEEQKETLKKLKLYQKEYYDYESKFEYELFLLRQKYHDLYGPIYDKRREALVGNGEAKIGTPNLPEFWLRALRNNNTVSHVIEDHDEEILVYLNDIRCDYIKKNKEKKEGFILSFYFATNPFFSNSVLTKTYHMKCVDCDNEPVLLHTEATVIDWYDNKNILKKNVVKKQHNKNSREVKTVQQTVNRDSFFHFFTSHKVPNSNVIKQLSKHEVAQLEMIIEGDYEVALTIKERIIPYAVDYYLGIIIESESNSIVSDVDSSYSSSENNSNYNSYESNNSAYNDENSNVDTNEYDDNEEEEEGAKSNEDPLTS
With B1, the binding result with histone H4 (calf thymus) and in “crystal structure” was “binds” in each case.

B2: PfNapL H227A (natural protein)
chain: B1 chain with H227A
On to B2, for which the binding result in the series with histone H4 (calf thymus) was “binds”.

B3: PfNapL E260A (natural protein)
chain: B1 chain with E260A
On to B3, for which the binding result with histone H4 (calf thymus) is recorded as “binds”.

B4: PfNapL T230A (natural protein)
chain: B1 chain with T230A
Turning to B4, the binding result with histone H4 (calf thymus) is listed as “binds”.

B5: PfNapL K266A (natural protein)
chain: B1 chain with K266A
With B5, the binding result in the series with histone H4 (calf thymus) is “binds”.

B6: PfNapL D192A (natural protein)
chain: B1 chain with D192A
Turning to B6, the binding result with histone H4 (calf thymus) was “binds”.

B7: PfNapL Y259A (natural protein)
chain: B1 chain with Y259A
As to B7, the binding result in the series with histone H4 (calf thymus) is on record as “binds”.
